Legend:
[1] = molecular target: T1, recombinant mouse CCR5 (MyBioSource) (mouse, UniProt P51682 1-354, limits assumed); test: competitive ELISA: plate coated with 20 nM mrCCR5, 0-400 nM mrCCL4 with 100 nM hrNAMPT(1) as competitor, bound hrNAMPT(1) detected
T1 construct: Coated on the ELISA plate at 20 nM; also called mrCCR5; mouse recombinant CCR5
Method: Then, wells were blocked for 1 h at room temperature with 1% BSA in PBS containing 0.05% Tween-20 (PBS-T).

[2] = molecular target: T2, human recombinant NAMPT(1) (recombinant human visfatin, PeproTech) (human, UniProt P43490 27-491, limits assumed); test: ELISA: plate coated with 20 nM GST-hrCCR5, 0-800 nM hrNAMPT(1), biotinylated anti-NAMPT detection, BSA signal deducted, non-linear fit
T2 construct: Bought protein; also called hrNAMPT(1); hrNAMPT source 1
T2 sequence (P43490 27-491 limits assumed): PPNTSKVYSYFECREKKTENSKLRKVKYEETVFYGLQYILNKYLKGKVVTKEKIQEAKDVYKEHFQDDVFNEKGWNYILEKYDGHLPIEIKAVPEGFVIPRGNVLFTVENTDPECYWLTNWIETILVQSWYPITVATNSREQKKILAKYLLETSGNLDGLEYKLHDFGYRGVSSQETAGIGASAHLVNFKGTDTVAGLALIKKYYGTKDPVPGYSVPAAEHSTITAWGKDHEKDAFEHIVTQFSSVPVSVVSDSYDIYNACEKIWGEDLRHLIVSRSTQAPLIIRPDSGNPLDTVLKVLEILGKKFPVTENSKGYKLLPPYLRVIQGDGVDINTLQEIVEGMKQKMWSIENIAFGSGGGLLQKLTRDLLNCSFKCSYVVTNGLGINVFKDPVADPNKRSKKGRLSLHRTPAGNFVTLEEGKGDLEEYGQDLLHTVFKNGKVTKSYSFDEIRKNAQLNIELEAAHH
Method: Wells were blocked for 1 h at room temperature with 1% BSA in PBS containing 0.05% Tween-20 (PBS-T).

[3] = molecular target: CCR5 (as used in the NAMPTcif competition assay of FIG. 9b); test: competition assay: inhibition of NAMPT binding to CCR5 by NAMPTcif (FIG. 9b); format not described

T1 sequence (P51682 whole entry): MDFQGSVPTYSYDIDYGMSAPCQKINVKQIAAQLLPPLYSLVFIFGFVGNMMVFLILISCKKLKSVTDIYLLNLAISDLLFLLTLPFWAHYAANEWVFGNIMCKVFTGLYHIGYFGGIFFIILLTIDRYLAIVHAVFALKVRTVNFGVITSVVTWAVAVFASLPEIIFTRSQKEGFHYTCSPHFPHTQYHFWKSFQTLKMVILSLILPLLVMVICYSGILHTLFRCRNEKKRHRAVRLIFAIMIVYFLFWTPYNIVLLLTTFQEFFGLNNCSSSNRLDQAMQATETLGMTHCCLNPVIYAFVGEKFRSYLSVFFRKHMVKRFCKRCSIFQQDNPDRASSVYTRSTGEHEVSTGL

B1: recombinant murine CCL4/MIP-1beta (PeproTech) (ligand, mouse, UniProt P14097 24-92, looked up)
chain: APMGSDPPTSCCFSYTSRQLHRSFVMDYYETSSLCSKPAVVFLTKRGRQICANPSEPWVTEYMSDLELN
notes: also called mrCCL4; mouse recombinant CCL4
IC50 [1]: 34.4 nM

B2: GST-fused recombinant human CCR5 (Abcam) (receptor)
chain: not shown
notes: Coated on the ELISA plate at 20 nM; GST is put first here only by convention; also called hrCCR5; human recombinant CCR5; not shown: GST fusion partner
Kd [2]: 172 nM

B3: NAMPT402-491 (recombinant C-terminal 'cytokine finger' fragment of NAMPT) (ligand)
chain: MSYVVTNGLGVNVFKDPVADPNKRSKKGRLSLHRTPAGNFVTLEEGKGDLEEYGHDLLHTVFKNGKVTKSYSFDEVRKNAQLNIEQDVAPHHHHHHH
notes: Made in E. coli BL21(DE3) from pET22b(+) and purified on HisTap; also called NAMPTcif; cif
IC50 [3]: 21.5 nM
